The target in this data set is T1, HA-Etv2 (Mus musculus) (UniProt P41163).
T1 sequence: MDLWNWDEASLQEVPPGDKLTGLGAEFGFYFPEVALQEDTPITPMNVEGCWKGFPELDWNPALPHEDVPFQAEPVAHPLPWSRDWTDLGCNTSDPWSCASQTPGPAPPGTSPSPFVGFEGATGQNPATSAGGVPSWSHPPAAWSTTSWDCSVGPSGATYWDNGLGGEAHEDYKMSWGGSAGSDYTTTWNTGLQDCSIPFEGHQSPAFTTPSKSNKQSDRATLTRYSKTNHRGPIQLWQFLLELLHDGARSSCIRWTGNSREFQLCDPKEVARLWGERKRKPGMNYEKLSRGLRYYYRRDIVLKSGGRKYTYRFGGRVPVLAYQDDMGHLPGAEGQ
The following applies: ChIP-qPCR with anti-HA, Dox-induced EBs. (In general: Real-time PCR tracks product formation cycle by cycle.)

As to “miR-130a upstream promoter region (ChIP amplicon)”, the binding signal (fold enrichment) is 15.

Values taken from patent US20190010458.
